Substitutions are numbered along the chain they refer to. Names may count otherwise.

The labels stand for the following.
B1: hIgG1 M252Y/T256S/V308P/N434W, O4 VH with Ab6 light chain (antibody)
heavy: QVQLRQSGPGLVQPSQSLSITCTVSGFSLTSYGVHWFRQSPGKGLEWLGVIWSGGSTDYNAAFISRLSISKDNSKSQVFFKMNSLQANDTAIYYCARNRGRYNYYAMDYWGQGTSVTVSSASTKGPSVFPLAPSSKSTSGGTAALGCLVKDYFPEPVTVSWNSGALTSGVHTFPAVLQSSGLYSLSSVVTVPSSSLGTQTYICNVNHKPSNTKVDKKVEPKSCDKTHTCPPCPAPELLGGPSVFLFPPKPKDTLYISRSPEVTCVVVDVSHEDPEVKFNWYVDGVEVHNAKTKPREEQYNSTYRVVSVLTPLHQDWLNGKEYKCKVSNKALPAPIEKTISKAKGQPREPQVYTLPPSRDELTKNQVSLTCLVKGFYPSDIAVEWESNGQPENNYKTTPPVLDSDGSFFLYSKLTVDKSRWQQGNVFSCSVMHEALHWHYTQKSLSLSPG
light: not shown
notes: hIgG1
B2: hIgG1 M252Y/T256V/V308P/N434F, O4 VH with Ab6 light chain (antibody)
heavy: B1 heavy with S259V, W437F
light: not shown
notes: hIgG1
B3: hIgG1 P257A/V308P/M428L/N434Y, O4 VH with Ab6 light chain (antibody)
heavy: B1 heavy with Y255M, S259T, P260A, M431L, W437Y
light: not shown
notes: hIgG1
B4: hIgG1 M252Y/T256V/V308P/N434W, O4 VH with Ab6 light chain (antibody)
heavy: B1 heavy with S259V
light: not shown
notes: hIgG1
B5: hIgG1 M252Y/V308P/N434Y, O4 VH with Ab6 light chain (antibody)
heavy: B1 heavy with S259T, W437Y
light: not shown
notes: hIgG1
B6: hIgG1 M252Y/V308P/N434W, O4 VH with Ab6 light chain (antibody)
heavy: B1 heavy with S259T
light: not shown
notes: hIgG1
B7: hIgG1 M252Y/T256Y/V308P/N434W, O4 VH with Ab6 light chain (antibody)
heavy: B1 heavy with S259Y
light: not shown
notes: hIgG1

In the first experiment the target is T1, human FcRn protein (human, UniProt P55899 24-297, limits assumed).
T1 construct: source and construct not described; also called hFcRn; FCGRT
T1 sequence (P55899 24-297 limits assumed, chain 1 of 2): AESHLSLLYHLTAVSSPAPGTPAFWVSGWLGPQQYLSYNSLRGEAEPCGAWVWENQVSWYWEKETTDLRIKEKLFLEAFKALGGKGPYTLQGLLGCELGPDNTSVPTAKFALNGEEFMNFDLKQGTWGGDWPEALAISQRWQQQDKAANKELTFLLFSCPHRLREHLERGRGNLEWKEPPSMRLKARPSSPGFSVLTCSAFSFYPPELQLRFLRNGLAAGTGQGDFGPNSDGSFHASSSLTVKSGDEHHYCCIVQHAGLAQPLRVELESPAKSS
T1 sequence (chain, as listed by the source limits assumed, chain 2 of 2): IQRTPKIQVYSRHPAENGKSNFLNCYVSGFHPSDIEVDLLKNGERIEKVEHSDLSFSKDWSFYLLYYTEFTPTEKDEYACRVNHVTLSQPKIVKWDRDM
The experiment is described as follows: SPR, Ab on Protein L chip, hFcRn in flow, pH 6.0. The protocol:
(§1) The interaction between human immunoglobulin proteins and FcRn is known to be affected by the pH of their environment solution. To test whether this pH-dependent interaction correlates with the quantity of antibody variants in the brain parenchyma after in vivo administration, the affinity of certain variants towards FcRn were screened at pH 6.0 and pH 7.4 on a Biacore T200 system (GE Healthcare). All experiments were conducted at 25′ C. Antibodies were expressed and purified using the Expi293 expression system as described in Example 1. Cells were transfected with a heavy chain comprising the variable region of the 04 antibody used in Example 2 [SEQ ID NO: 1] fused to a heavy chain region bearing the indicated substitution in Table 11 and a light chain from Ab6 [SEQ TD NO: 24]. Although the CH sequences listed in Table 11 include the terminal lysine (K447), this terminal lysine was truncated during the cloning process for each of these variants for the purposes of this experiment. Antibody proteins were captured at a flow rate of 10 μL/min on a Protein L chip to a surface density of approximately 100 RU. Experiments conducted at pH 7.4 were conducted in PBST (1.06 mMKH2PO4, 155.17 mM7NaCl, 2.97 mM 4Na2PO4-7H2O, and 0.005 Tween-20). […] The antibody-FcRn complex was allowed to dissociate for 20 s before the chip was regenerated with 10 mM glycine pH 1.7. On-rates (ka) and off-rates (kd) were estimated by the best fit to a one-to-one Langmuir binding model by simultaneous fitting of the association and dissociation sensograms. The dissociation constant (KD) for FcRn binding was then calculated as the ratio of the off rate to the on rate (kd/ka).
In general terms: SPR reads the build-up and loss of mass on a sensor chip optically.
B1: binding was put at a Kd of 1.23 nM; the koff – broadly, the rate constant with which the complex falls apart – was determined as 0.00186 s⁻¹; the kon (usually a measure of how fast the partners come together) was determined as 1.52e+06 M⁻¹ s⁻¹.

Consider B2, for which binding was characterised by a dissociation constant (Kd) of 1.25 nM, the koff worked out at 0.00139 s⁻¹ and the kon turned out to be 1.11e+06 M⁻¹ s⁻¹.

B3: binding was characterised by a dissociation constant (Kd) of 4.26 nM, the koff was found to be 0.00706 s⁻¹ and the kon worked out at 1.66e+06 M⁻¹ s⁻¹.

On to B4, for which the Kd (in general, the concentration at which binding is half-saturated) came to 1.87 nM; the koff came out at 0.0024 s⁻¹; the kon came out at 1.29e+06 M⁻¹ s⁻¹.

As for B5, the Kd came to 1.51 nM, the koff was 0.00242 s⁻¹ and the kon was 1.61e+06 M⁻¹ s⁻¹.

B6 yielded a Kd of 0.767 nM, a koff of 0.00124 s⁻¹ and a kon of 1.62e+06 M⁻¹ s⁻¹.

With B7, the Kd was 0.754 nM, the koff was 0.00112 s⁻¹ and the kon turned out to be 1.49e+06 M⁻¹ s⁻¹.

The target of another experiment is T1, human FcRn protein. The experiment is described as follows: SPR, Ab on Protein L chip, hFcRn in flow, pH 7.4. The protocol:
as §1
As for B1, the affinity, expressed as Kd, was 84.5 nM; the koff was 0.0564 s⁻¹; the kon is 668000 M⁻¹ s⁻¹.

The molecule B2 returned a Kd of 202 nM, a koff of 0.2 s⁻¹ and a kon of 977000 M⁻¹ s⁻¹.

The molecule B3 gave a Kd of 239 nM, a koff of 0.0545 s⁻¹ and a kon of 228000 M⁻¹ s⁻¹.

As to B4, the Kd is 68.7 nM, the koff was 0.0327 s⁻¹ and the kon amounted to 476000 M⁻¹ s⁻¹.

In turn, B5 showed an equilibrium dissociation constant (Kd) of 10300 nM, a koff of 0.748 s⁻¹ and a kon of 72600 M⁻¹ s⁻¹.

Consider B6, for which the Kd was 730000 nM, the koff worked out at 3.11 s⁻¹ and the kon amounted to 4260 M⁻¹ s⁻¹.

For the molecule B7, the Kd came out at 202 nM, the koff turned out to be 0.08 s⁻¹ and the kon was 395000 M⁻¹ s⁻¹.

The values above are taken from patent US20240150447A1 (CEPHALON, published 2024).
